Values of other authors in paper PMC3292877.

Biological target: ERK2 (Rattus norvegicus) (UniProt P63086)

- Kd: 7 nM
Substance: ERK2 (from UniProt P63086)
